# In patent US20240060104A1, “ATP-PRT VARIANT WITH REDUCED FEEDBACK INHIBITION BY HISTIDINE, AND HISTIDINE-PRODUCING STRAIN EXPRESSING SAME” (DAESANG CORPORATION, priority 2020, published 2024):
# B1: hisG_SDM7: ATP-PRT variant containing H232T, R250H, T252L, E271K and S288P mutations (protein)
# chain: MTDNTRLRIAMQKSGRLSDDSRELLARCGIKINLHTQRLIAMAENMPIDILRVRDDDIPGLVMDGVVDLGIIGENVLEEELLNRRAQGEDPRYFTLRRLDFGGCRLSLATPVDEAWDGPLSLNGKRIATSYPHLLKRYLDQKGISFKSCLLNGSVEVAPRAGLADAICDLVSTGATLEANGLREVEVIYRSKACLIQRDGEMEESKQQLIDKLLTRIQGVIQARESKYIMMTAPTERLDEVIALLPGAEHPLILPLAGDQQRVAMHMVSSKTLFWETMEKLKALGASPILVLPIEKMME
# modifications: hisG_SDM7
# notes: ATP-PRT variant containing H232T, R250H, T252L, E271K and S288P mutations
# Biological target: T1, ATP phosphoribosyltransferase (Escherichia coli, UniProt P60757, E271K/H232T/R250H/S288P/T252L)
# T1 construct: endogenous in cells; host or cells: E. coli DS9H (chromosomal hisG); sonicated cells, centrifuged supernatant
# Type: biochemical, E. coli
# Settings: FIG. 1, compared among hisG_WT, hisG_SDM4, hisG_SDM7
# Procedure: Each strain was cultured under conditions of 30° C. and 180 rpm. When the OD600 reached 0.6, ATP-PRT expression was induced with 1 mM IPTG (final concentration) and additional culture was performed for about 4 hours. The cells obtained after culturing were sonicated and centrifuged. The obtained supernatants were used for evaluation of ATP phosphoribosyltransferase activity. […] The protein in each supernatant was quantified to match the concentration, and the enzyme activity was measured after mixing the reactants according to the reaction composition shown in Table 8 below.
# The activity was measured at 30° C. at a UV wavelength of 290 nm at 2 minute intervals for 30 minutes.
molecule,measurement,value
B1,Resistance to activity inhibition by histidine,best resistance
